Experimental data as given in the supplement of paper PMC9233669.
Fewer inactive variants are shown than the library holds.

What was measured:
biotinyl-Phe-oxazolone = assay: self-aminoacylation, catalytic enhancement (BFO) (fold over background); higher = more active; k-Seq, kA / k0A0; sequences stand for … in GGGAAUGGAUCCACAUCUACGAAUUC…UUCACUGCAGACUUGACGAAGCUG
In short: (§1)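 Each biotinyl-aminoacyl-oxazolone, at 2–1250 μM, was incubated with mutagenized RNA pools (0.43 μM) carrying a 21-nt variable region. The 50 μL reactions contained HEPES/NaCl/KCl/MgCl2/CaCl2 buffer with 5% acetonitrile at pH 6.9–7.0 and ran for 90 minutes at room temperature. After streptavidin capture, RNA was measured by qPCR in triplicate and by Illumina sequencing, and catalytic enhancement was calculated as median kA over the uncatalyzed rate from a pseudo-first-order fit of per-sequence fraction reacted.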

biotinyl-Ile-oxazolone = assay: self-aminoacylation, catalytic enhancement (BIO) (fold over background); higher = more active; k-Seq, kA / k0A0; sequences stand for … in GGGAAUGGAUCCACAUCUACGAAUUC…UUCACUGCAGACUUGACGAAGCUG
In short: as §1

biotinyl-Met-oxazolone = assay: self-aminoacylation, catalytic enhancement (BMO) (fold over background); higher = more active; k-Seq, kA / k0A0; sequences stand for … in GGGAAUGGAUCCACAUCUACGAAUUC…UUCACUGCAGACUUGACGAAGCUG
In short: as §1

biotinyl-Val-oxazolone = assay: self-aminoacylation, catalytic enhancement (BVO) (fold over background); higher = more active; k-Seq, kA / k0A0; sequences stand for … in GGGAAUGGAUCCACAUCUACGAAUUC…UUCACUGCAGACUUGACGAAGCUG
In short: as §1

biotinyl-Leu-oxazolone = assay: self-aminoacylation, catalytic enhancement (BLO) (fold over background); higher = more active; k-Seq, kA / k0A0; sequences stand for … in GGGAAUGGAUCCACAUCUACGAAUUC…UUCACUGCAGACUUGACGAAGCUG
In short: as §1

biotinyl-Trp-oxazolone = assay: self-aminoacylation, catalytic enhancement (BWO) (fold over background); higher = more active; k-Seq, kA / k0A0; sequences stand for … in GGGAAUGGAUCCACAUCUACGAAUUC…UUCACUGCAGACUUGACGAAGCUG
In short: as §1

Sequence	self-aminoacylation (biotinyl-Phe-oxazolone)	self-aminoacylation (biotinyl-Ile-oxazolone)	self-aminoacylation (biotinyl-Met-oxazolone)	self-aminoacylation (biotinyl-Val-oxazolone)	self-aminoacylation (biotinyl-Leu-oxazolone)	self-aminoacylation (biotinyl-Trp-oxazolone)
AUUCACCUGGGUCAUCGCGUG [Fam2.2 aminoacylation ribozyme variant]	110	8.24	14.3	9.89	17.1	14.3
AUGAACCUGGUCAUCGAGUGA [Fam2.1 aminoacylation ribozyme variant]	5.16	3.31	5.7	3.17	6.61	6.4
CUACUUCAAACAAUAGGUCUU [Fam1A.1 aminoacylation ribozyme variant]	0.985	0.947	0.75	0.828	0.827	0.538
CGACUUCAAACAUUCGGUCUG [Fam1A.1 aminoacylation ribozyme variant]	8.04	1.81	1.49	1.96	1.43	2.1
AUUCAUCUUGGUCAUCGGGUG [Fam2.2 aminoacylation ribozyme variant]	50.1	4.97	7.46	4.56	9.58	7.39
AUACUUCAAACAAUCGAUCUG [Fam1A.1 aminoacylation ribozyme variant]	0.915	0.684	0.535	0.59	0.485	0.648
AACUUUGCUUAUAGUCGCAAG [Fam3.1 aminoacylation ribozyme variant]	3.75	2.58	3.18	2.2	2.98	2.98
CUACUUCAAACAAUCUGUUUG [Fam1A.1 aminoacylation ribozyme variant]	0.912	0.788	0.713	0.838	0.76	0.635
AAGUUGGCUAAUAGCCGCAAG [Fam3.1 aminoacylation ribozyme variant]	2.16	1.89	2.22	1.91	1.95	2.85
CCACACUCCAAGCAAUAGGUC [Fam1B.1 aminoacylation ribozyme variant]	1.06	0.741	0.686	0.845	0.569	0.637
CCGCACUUCCAGCAAUCGGUC [Fam1B.1 aminoacylation ribozyme variant]	0.932	1.35	0.995	2.03	1.04	0.883
AAGUUUGCUAAAAGUCACAAG [Fam3.1 aminoacylation ribozyme variant]	3.25	1.35	0.971	1.07	0.919	2
CUUACCCUCGUCAUCGAGUGA [Fam2.1 aminoacylation ribozyme variant]	3.66	1.82	2.42	1.92	2.47	3.21
AUUGACCUAGGUCAUCGGGGG [Fam2.2 aminoacylation ribozyme variant]	12.8	3.41	3.21	3.04	4.57	3.93
AUUCGCCUAGGUCAUGGGGUG [Fam2.2 aminoacylation ribozyme variant]	31.7	3.88	5.41	4.43	6.48	5.56
AUUAGCCUGAUCAUCGAGUGA [Fam2.1 aminoacylation ribozyme variant]	46.7	4.82	10.4	4.4	10.6	11
AAGUUCGCUAAUUGUCGCAAG [Fam3.1 aminoacylation ribozyme variant]	3.26	1.68	1.3	1.7	2.06	1.51
AAGUUUGCUAAUAAUUGCAAG [Fam3.1 aminoacylation ribozyme variant]	1.1	0.961	0.862	0.857	0.877	0.832
CUACUUCAAACAUUCGGUCUC [Fam1A.1 aminoacylation ribozyme variant]	0.796	0.986	0.849	0.975	0.806	0.715
AUUCACCUAAGUCAUCGGGAG [Fam2.2 aminoacylation ribozyme variant]	0.578	1.07	1.2	1.49	1.81	1.14
AAGCUUGCCAAUAGUCGCAAG [Fam3.1 aminoacylation ribozyme variant]	3.44	2.31	2.48	2.42	2.23	3.62
AUUUACCUAUGUCAUCGGGUG [Fam2.2 aminoacylation ribozyme variant]	28	3.04	4.35	2.96	6.5	4.76
AUUCACCGAGGCCAUCGGGUG [Fam2.2 aminoacylation ribozyme variant]	32.8	3.16	5.31	4.36	6.39	4.78
CCACUCUUAAAGCAAUCGGUC [Fam1B.1 aminoacylation ribozyme variant]	0.711	1.06	0.911	1.01	0.993	0.693
AUUCACCCCGGUCAUCGGGUG [Fam2.2 aminoacylation ribozyme variant]	64.7	4.14	7.52	3.99	8.33	5.88
AUUAACCUAGUCAUCGAGUGA [Fam2.1 aminoacylation ribozyme variant]	15.5	2.94	4.95	2.96	5.13	7.12

Sequence	self-aminoacylation (biotinyl-Phe-oxazolone)	self-aminoacylation (biotinyl-Ile-oxazolone)	self-aminoacylation (biotinyl-Met-oxazolone)	self-aminoacylation (biotinyl-Val-oxazolone)	self-aminoacylation (biotinyl-Leu-oxazolone)	self-aminoacylation (biotinyl-Trp-oxazolone)
CCACACUUCAAGCUAUCGGCC [Fam1B.1 aminoacylation ribozyme variant]	0.862	1.62	1.7	1.51	1.82	1.81
GCAAACUUCAAGCAAUCGGUC [Fam1B.1 aminoacylation ribozyme variant]	21.7	2.13	2.05	2.17	2.47	19.5
AUUCACCUCGGUCAUCCGGUG [Fam2.2 aminoacylation ribozyme variant]	78.8	6.84	12.2	7.28	14	11.1
AGGUUUGCUAAUAGGCGCAAG [Fam3.1 aminoacylation ribozyme variant]	1.16	0.85	0.736	0.734	0.626	1.18
AAGUUGGCUAAUAGUCGCAGG [Fam3.1 aminoacylation ribozyme variant]	3.81	1.59	1.6	1.34	1.97	1.23
AUAACCCUGGUAAUCGAGUGA [Fam2.1 aminoacylation ribozyme variant]	42.6	3.97	7.93	3.58	8.57	9.38
GUACUUCAAACAAUCGCUCUG [Fam1A.1 aminoacylation ribozyme variant]	3.1	1.77	1.91	1.71	1.88	3.76
GUUACCCUGGUCUUCGAGUGA [Fam2.1 aminoacylation ribozyme variant]	50.7	4.45	8.47	5.01	8.79	10.1
AUUCACCUAGGUCAACGGGUC [Fam2.2 aminoacylation ribozyme variant]	0.507	0.899	0.915	1.07	0.807	0.902
CCACCCUGCAAGCAAUCGGUC [Fam1B.1 aminoacylation ribozyme variant]	1.28	1.42	1.3	1.73	1.17	1.23
AUAACCCUGGUCAUCUAGUGA [Fam2.1 aminoacylation ribozyme variant]	45.7	4.52	8.88	4.77	9.2	10.1
AAUUUUGCUAAUAGUCUCAAG [Fam3.1 aminoacylation ribozyme variant]	2.56	1.38	1.21	1.26	1.19	1.23
CUACUUCAAACAUUAGGUCUG [Fam1A.1 aminoacylation ribozyme variant]	0.696	0.813	0.617	0.747	0.6	0.535
AUUCACCUAGGACAUCCGGUG [Fam2.2 aminoacylation ribozyme variant]	31	7.62	5.98	6.22	6	4.47
AAGGUUGCUAAUAGUGGCAAG [Fam3.1 aminoacylation ribozyme variant]	0.712	0.698	0.863	0.79	0.977	0.638
CCACACUUCAUGCAAGCGGUC [Fam1B.1 aminoacylation ribozyme variant]	0.633	1.08	0.854	0.835	1.01	0.681
AUUCCCCUAGGUCAUCGGGUU [Fam2.2 aminoacylation ribozyme variant]	36.7	6.34	5.77	6.74	8.02	7.29
AUUACCCCGGUCAUCGUGUGA [Fam2.1 aminoacylation ribozyme variant]	16.2	1.55	2.63	1.74	2.57	2.98
CCACACUUCAAAGAAUCGGUC [Fam1B.1 aminoacylation ribozyme variant]	12.1	0.988	0.888	0.955	1.17	9.57
AACUUUGCUAAUCGUCGCAAG [Fam3.1 aminoacylation ribozyme variant]	9.09	1.93	2.21	1.89	2.66	2.15
AAGUUUGCUCAUAGUGGCAAG [Fam3.1 aminoacylation ribozyme variant]	1.2	0.71	0.618	0.774	0.526	0.785
AAUUUUGCUAAUAGUCGCGAG [Fam3.1 aminoacylation ribozyme variant]	8.52	2.28	1.99	1.51	1.7	2.02
AUACACCUAGGUCAUCGGGUU [Fam2.2 aminoacylation ribozyme variant]	1.76	2.4	2.15	2.14	2.79	2.69
UUUCACCUAGGUCCUCGGGUG [Fam2.2 aminoacylation ribozyme variant]	35.6	3.82	4.17	4.22	4.92	5.68
AUUCACCUAGGUCAAGGGGUG [Fam2.2 aminoacylation ribozyme variant]	4.67	1.37	1.43	1.3	1.41	1.3
